The target in experiment [1] is murine VEGF (mouse) (UniProt Q00731). Kind of experiment: 25C; given as unpublished results.
For experiment [2] the target is unchanged. The experiment can be described thus: BIAcore or solution binding ELISA, Fab, measured as control in the same assays. On the technique in general: SPR reads the build-up and loss of mass on a sensor chip optically.
Experiment [3] deals with T1, human placenta growth factor (PlGF-2) (human, UniProt P49763-3 19-170, limits assumed).
T1 construct: also called human P1GF-2
T1 sequence (looked up): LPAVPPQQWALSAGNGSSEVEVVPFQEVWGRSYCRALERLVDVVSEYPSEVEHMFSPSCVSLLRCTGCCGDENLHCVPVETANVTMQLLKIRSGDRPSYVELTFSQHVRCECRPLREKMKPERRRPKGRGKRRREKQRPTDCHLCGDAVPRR
Kind of experiment: direct ELISA on homolog-coated wells (2ug/ml), increasing G6 Fab. On the technique in general: In an ELISA, binding on a coated surface is turned into a signal by an enzyme label.

A further experiment deals with T2, human VEGF-B (human, UniProt P49765-2 22-188, limits assumed).
T2 sequence (looked up): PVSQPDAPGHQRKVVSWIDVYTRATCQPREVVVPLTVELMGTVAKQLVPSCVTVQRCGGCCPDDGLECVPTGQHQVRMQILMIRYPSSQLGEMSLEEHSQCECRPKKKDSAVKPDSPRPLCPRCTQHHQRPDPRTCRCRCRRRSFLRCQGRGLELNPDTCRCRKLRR
The description is as above.

A further experiment has as its target T3, murine VEGF-D (mouse, UniProt P97946 98-206, limits assumed).
T3 construct: also called mVEGF-D
T3 sequence (looked up): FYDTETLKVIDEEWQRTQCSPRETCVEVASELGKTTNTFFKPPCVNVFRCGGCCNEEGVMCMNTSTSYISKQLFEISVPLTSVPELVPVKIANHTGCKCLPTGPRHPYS
Described as above.

Experiment [4] concerns the target T4, mouse placenta growth factor (PlGF-2) (mouse, UniProt P49764 24-158, limits assumed).
T4 construct: also called murine P1GF-2
T4 sequence (looked up): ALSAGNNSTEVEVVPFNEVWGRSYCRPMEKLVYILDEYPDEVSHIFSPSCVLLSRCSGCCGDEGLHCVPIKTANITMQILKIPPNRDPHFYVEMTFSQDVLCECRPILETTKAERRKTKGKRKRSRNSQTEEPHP
Described as above.

2 molecules from WO2005044853A2 (dated 2005) can be followed below.

Sequence of murine VEGF (mouse) (Q00731 other isoform, or with tags, fused parts or gaps limits assumed): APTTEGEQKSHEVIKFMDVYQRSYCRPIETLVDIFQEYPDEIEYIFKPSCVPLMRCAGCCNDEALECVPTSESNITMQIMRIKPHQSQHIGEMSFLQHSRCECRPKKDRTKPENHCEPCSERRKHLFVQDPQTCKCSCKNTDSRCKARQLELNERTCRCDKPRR

As a reminder, the Kd is the concentration at which binding is half-saturated. Higher therefore signals a looser complex. Regarding Y0317 Fab, in the experiment with murine VEGF (mouse) [1], the Kd came to 0.3 µM. Moreover, in the experiment with murine VEGF (mouse) [2], the affinity was 350 nM.

B1: G6 Fab (Fab, V domains shown)
VH: EVQLVESGGGLVQPGGSLRLSCAASGFTISDYWIHWVRQAPGKGLEWVAGITPAGGYTYYADSVKGRFTISADTSKNTAYLQMNSLRAEDTAVYYCARFVFFLPYAMDYWGQGTLVTVSS
VL: DIQMTQSPSSLSASVGDRVTITCRASQDVSTAVAWYQQKPGKAPKLLIYSASFLYSGVPSRFSGSGSGTDFTLTISSLQPEDFATYYCQQSYTTPPTFGQGTKVEIKR
notes: also called G6 antibody; G6 clone
As to B1, the binding result (in experiment [3]; in the experiment with human VEGF-B; with murine VEGF-D; in experiment [4]) was “no binding” each time.
